Test results from US20090074722A1, “Products and methods for treating PTP lar diseases” (MAX-PLANCK-GESELLSCHAFT ZUR, priority 1999, published 2009).

B1: GST-PTP LAR PTP D2 C1813S: GST fusion of PTP LAR cytoplasmic domain with inactivated PTP domain 2 (protein)
chain: KRKRTHSPSSKDEQSIGLKDSLLAHSSDPVEMRRLNYQTPGMRDHPPIPITDLADNIERLKANDGLKFSQEYESIDPGQQFTWENSNLEVNKPKNRYANVIAYDHSRVILTSIDGVPGSDYINANYIDGYRKQNAYIATQGPLPETMGDFWRMVWEQRTATVVMMTRLEEKSRVKCDQYWPARGTETCGLIQVTLLDTVELATYTVRTFALHKSGSSEKRELRQFQFMAWPDHGVPEYPTPILAFLRRVKACNPLDAGPMVVHCSAGVGRTGCFIVIDAMLERMKHEKTVDIYGHVTCMRSQRNYMVQTEDQYVFIHEALLEAATCGHTEVPARNLYAHIQKLGQVPPGESVTAMELEFKLLASSKAHTSRFISANLPCNKFKNRLVNIMPYELTRVCLQPIRGVEGSDYINASFLDGYRQQKAYIATQGPLAESTEDFWRMLWEHNSTIIVMLTKLREMGREKCHQYWPAERSARYQYFVVDPMAEYNMPQYILREFKVTDARDGQSRTIRQFQFTDWPEQGVPKTGEGFIDFIGQVHKTKEQFGQDGPITVHCSAGVGRTGVFITLSIVLERMRYEGVVDMFQTVKTLRTQRPAMVQTEDQYQLCYRAALEYLGSFDHYAT
B2: GST-PTP LAR PTP D1 C1522S: GST fusion of PTP LAR cytoplasmic domain with catalytically inactivated PTP domain 1 (protein)
chain: KRKRTHSPSSKDEQSIGLKDSLLAHSSDPVEMRRLNYQTPGMRDHPPIPITDLADNIERLKANDGLKFSQEYESIDPGQQFTWENSNLEVNKPKNRYANVIAYDHSRVILTSIDGVPGSDYINANYIDGYRKQNAYIATQGPLPETMGDFWRMVWEQRTATVVMMTRLEEKSRVKCDQYWPARGTETCGLIQVTLLDTVELATYTVRTFALHKSGSSEKRELRQFQFMAWPDHGVPEYPTPILAFLRRVKACNPLDAGPMVVHCSAGVGRTGCFIVIDAMLERMKHEKTVDIYGHVTCMRSQRNYMVQTEDQYVFIHEALLEAATCGHTEVPARNLYAHIQKLGQVPPGESVTAMELEFKLLASSKAHTSRFISANLPCNKFKNRLVNIMPYELTRVCLQPIRGVEGSDYINASFLDGYRQQKAYIATQGPLAESTEDFWRMLWEHNSTIIVMLTKLREMGREKCHQYWPAERSARYQYFVVDPMAEYNMPQYILREFKVTDARDGQSRTIRQFQFTDWPEQGVPKTGEGFIDFIGQVHKTKEQFGQDGPITVHCSAGVGRTGVFITLSIVLERMRYEGVVDMFQTVKTLRTQRPAMVQTEDQYQLCYRAALEYLGSFDHYAT

Target: T1, tyrosine phosphorylated β-catenin (Homo sapiens, UniProt P35222)
T1 construct: expressed in transfected cells; host or cells: human 293 embryonic kidney cells, transient; CMV-promoter vector; immunoprecipitated with anti-β-catenin antibody
T1 sequence (P35222 1-781): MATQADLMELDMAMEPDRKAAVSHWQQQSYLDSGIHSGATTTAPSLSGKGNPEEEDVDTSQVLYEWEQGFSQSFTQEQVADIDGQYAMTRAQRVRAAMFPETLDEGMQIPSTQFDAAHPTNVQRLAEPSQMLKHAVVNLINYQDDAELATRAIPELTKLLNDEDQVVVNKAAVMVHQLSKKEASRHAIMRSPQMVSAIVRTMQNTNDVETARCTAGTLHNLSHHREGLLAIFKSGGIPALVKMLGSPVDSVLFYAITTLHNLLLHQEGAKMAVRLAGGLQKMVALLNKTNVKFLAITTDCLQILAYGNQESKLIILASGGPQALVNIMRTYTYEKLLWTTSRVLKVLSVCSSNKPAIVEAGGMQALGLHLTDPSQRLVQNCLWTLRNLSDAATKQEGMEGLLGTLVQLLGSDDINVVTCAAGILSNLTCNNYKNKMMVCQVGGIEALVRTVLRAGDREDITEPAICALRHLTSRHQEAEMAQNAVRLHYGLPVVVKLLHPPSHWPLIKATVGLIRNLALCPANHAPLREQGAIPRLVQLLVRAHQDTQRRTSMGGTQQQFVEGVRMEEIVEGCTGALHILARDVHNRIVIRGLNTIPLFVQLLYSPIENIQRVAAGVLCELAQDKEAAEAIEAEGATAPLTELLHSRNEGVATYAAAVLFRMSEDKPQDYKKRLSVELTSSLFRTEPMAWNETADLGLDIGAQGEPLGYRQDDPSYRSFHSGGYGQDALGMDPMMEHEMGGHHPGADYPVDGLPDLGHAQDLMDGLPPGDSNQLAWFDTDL
Assay: In vitro dephosphorylation assay
Assay type: biochemical
Conditions: 200 ng GST fusion protein, 25° C.; within the first five minutes; anti-phosphotyrosine Western blot
Protocol: After 24 h of serum starvation, the cells were stimulated with pervanadate before lysis. β-catenin was subsequently immunoprecipitated with an anti-β-catenin antibody, and precipitates were incubated for the indicated time intervals with GST-PTP LAR cytoplasmic fusion protein (left), GST-PTP LAR PTP D1 C1522S-mutant (middle) or GST-PTP LAR PTP D2 C1813S-mutant (right). Reactions were terminated after the indicated periods of time, and proteins were separated by SDS-PAGE. Tyrosine phosphorylation levels of […] were analyzed by Western blotting with an anti-phosphotyrosine antibody (top). […] Arrows indicate the proteins of interest.
In Vitro Dephosphorylation Assay—β-catenin was transiently overexpressed in human 293 embryonic kidney cells. Cells were serum-starved, treated with pervanadate ([…]/0.1 mM Na-orthovanadate) for 10 minutes and lysed. Immunoprecipitations were performed as described above except that HNTG without pyrophosphate, ammonium-molybdate, and Na-orthovanadate was used. PTP activity towards tyrosine phosphorylated β-catenin was assayed in 200 μL reactions at 25° C. containing 25 mM HEPES, pH 7.5, 5 mM EDTA, 10 mM DTT, and 1 mg/mL BSA with 200 ng of GST-hPTP LAR cytoplasmic, GST-hPTP LAR D1 C1522S, or GST-hPTP LAR D2 C1813S added. Reactions were stopped by washing with HNTG and subsequently separated by SDS-PAGE. The tyrosine phosphorylation status was analyzed by Western blotting using anti-phosphotyrosine antibody.
The association of β-catenin and plakoglobin with PTP LAR prompted the investigation of whether these proteins could represent actual substrates for PTP LAR. […] After different time intervals, the reactions were terminated and analyzed with an anti-phosphotyrosine specific antibody.

Molecule | tyrosine phosphorylation signal of β-catenin
B1 | significant reduction in the tyrosine phosphorylation signal
B2 | No change in phosphorylation levels
